Reference: paper PMC6609460 (Nature structural & molecular biology, 2019)

T1: FBXL2 in the crystallised GGTase3-FBXL2-SKP1 complex (human, UniProt Q9UKC9 1-423)
T1 sequence: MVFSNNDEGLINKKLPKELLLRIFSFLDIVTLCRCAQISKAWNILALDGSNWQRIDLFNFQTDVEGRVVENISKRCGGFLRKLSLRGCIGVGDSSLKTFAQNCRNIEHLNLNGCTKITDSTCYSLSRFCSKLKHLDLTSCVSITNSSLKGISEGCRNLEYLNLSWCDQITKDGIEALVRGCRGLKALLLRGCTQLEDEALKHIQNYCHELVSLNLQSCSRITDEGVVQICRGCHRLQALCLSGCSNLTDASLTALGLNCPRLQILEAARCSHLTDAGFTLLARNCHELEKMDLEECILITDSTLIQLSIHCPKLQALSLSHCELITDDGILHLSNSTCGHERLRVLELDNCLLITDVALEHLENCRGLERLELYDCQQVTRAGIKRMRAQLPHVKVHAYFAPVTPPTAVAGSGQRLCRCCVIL

B1: PTAR1 in the crystallised GGTase3-FBXL2-SKP1 complex (natural protein)
chain: MAETSEEVAVLVQRVVKDITNAFRRNPHIDEIGLIPCPEARYNRSPIVLVENKLGVESWCVKFLLPYVHNKLLLYRTRKQWLNRDELIDVTCTLLLLNPDFTTAWNVRKELILSGTLNPIKDLHLGKLALTKFPKSPETWIHRRWVLQQLIQETSLPSFVTKGNLGTIPTERAQRLIQEEMEVCGEAAGRYPSNYNAWSHRIWVLQHLAKLDVKILLDELSSTKHWASMHVSDHSGFHYRQFLLKSLISQTVIDSSVMEQNPLRSEPALVPPKDEEAAVSTEEPRINLPHLLEEEVEFSTDLIDSYPGHETLWCHRRHIFYLQHHLNAGSQLSQAMEVDGLNDSSKQGYSQETKRLKRTPVPDSLGLEMEHRFIDQVLSTCRNVEQARFASAYRKWLVTLSQ

Tests used:
[1] = molecular target: B1; experiment: crystal structure
[2] = molecular target: T1, FBXL2 in the crystallised …; experiment: crystal structure

binding result [1]	binding result [2]	Binder
binds		RabGGTB in the crystallised GGTase3-FBXL2-SKP1 complex (natural protein) MGTPQKDVIIKSDAPDTLLLEKHADYIASYGSKKDDYEYCMSEYLRMSGIYWGLTVMDLMGQLHRMNREEILAFIKSCQHECGGISASIGHDPHLLYTLSAVQILTLYDSINVIDVNKVVEYVKGLQKEDGSFAGDIWGEIDTRFSFCAVATLALLGKLDAINVEKAIEFVLSCMNFDGGFGCRPGSESHAGQIYCCTGFLAITSQLHQVNSDLLGWWLCERQLPSGGLNGRPEKLPDVCYSWWVLASLKIIGRLHWIDREKLRNFILACQDEETGGFADRPGDMVDPFHTLFGIAGLSLLGEEQIKPVNPVFCMPEEVLQRVNVQPELVS
	binds	B1
